Paper PMC3281905, “Structure-Based Rational Design of a Toll-like Receptor 4 (TLR4) Decoy Receptor with High Binding Affinity for a Target Protein” (PLoS ONE, 2012)

B2: myeloid differentiation protein 2 (MD2) (natural protein, human)
chain: QKQYWVCNSSDASISYTYCDKMQYPISINVNPCIELKRSKGLLHIFYIPRRDLKQLYFNLYITVNTMNLPKRKEVICRGSDDDYSFCRALKGETVNTTISFSFKGIKFSKGKYKCVVEAISGSPEEMLFCLEFVILHQPN
notes: human MD2 (myeloid differentiation protein 2); Secreted from insect cells with the vector pAcGP67; also called human MD2; source: monomeric MD2 from Superdex 75)

How the values were obtained:
Assay in all cases: SPR; Biacore 3000; decoy receptor or variant covalently immobilised on a CM5 chip (EDC/NHS, 500-800 RU); MD2 4 nM to 2 µM in HBS-EP injected at 60 µL/min for 90 sec, 30 min dissociation; 1:1 Langmuir model
Conditions in all cases: both partners purified
[1] = target: B2
[2] = target: TLR4 decoy receptor TV3 D181E (human | hagfish, UniProt O00206 27-228; O00206 27-228, D181E)
[3] = target: TLR4 decoy receptor TV3 S184K (human | hagfish, UniProt O00206 27-228; O00206 27-228, S184K)
[4] = target: TLR4 decoy receptor TV3 M41E (human | hagfish, UniProt O00206 27-228; O00206 27-228, M41E)
Sequence of TLR4 decoy receptor TV3 M41E (O00206 other isoform, or with tags, fused parts or gaps M41E | M41E | M41E): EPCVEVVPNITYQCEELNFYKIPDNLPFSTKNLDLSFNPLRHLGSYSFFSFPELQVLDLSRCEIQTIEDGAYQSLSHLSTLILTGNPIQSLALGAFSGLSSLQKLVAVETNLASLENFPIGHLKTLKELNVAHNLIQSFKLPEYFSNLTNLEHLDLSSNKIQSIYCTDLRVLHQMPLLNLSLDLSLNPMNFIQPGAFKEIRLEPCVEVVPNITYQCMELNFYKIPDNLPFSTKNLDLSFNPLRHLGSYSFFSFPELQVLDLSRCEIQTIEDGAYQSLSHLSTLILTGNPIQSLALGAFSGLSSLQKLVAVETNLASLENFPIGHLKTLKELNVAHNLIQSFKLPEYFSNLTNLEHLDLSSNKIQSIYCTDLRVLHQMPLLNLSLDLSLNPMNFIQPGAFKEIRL

[5] = target: TLR4 decoy receptor TV3 F63L (human | hagfish, UniProt O00206 27-228; O00206 27-228, F63L)
[6] = target: TLR4 decoy receptor TV3 F63W (human | hagfish, UniProt O00206 27-228; O00206 27-228, F63W)
[7] = target: TLR4 decoy receptor TV3 V132F (human | hagfish, UniProt O00206 27-228; O00206 27-228, V132F)
[8] = target: TLR4 decoy receptor TV3 V134L (human | hagfish, UniProt O00206 27-228; O00206 27-228, V134L)
[9] = target: TLR4 decoy receptor TV3 N156I (human | hagfish, UniProt O00206 27-228; O00206 27-228, N156I)
[10] = target: TLR4 decoy receptor TV3 H159Q (human | hagfish, UniProt O00206 27-228; O00206 27-228, H159Q)
[11] = target: TLR4 decoy receptor TV3 M41E/F63W (human | hagfish, UniProt O00206 27-228; O00206 27-228, M41E | F63W)
Sequence of TLR4 decoy receptor TV3 M41E/F63W (O00206 other isoform, or with tags, fused parts or gaps M41E | F63W | M41E | F63W | M41E F63W): as the sequence (O00206 other isoform, or with tags, fused parts or gaps M41E | M41E | M41E) above, with F37W counted along it

[12] = target: TLR4 decoy receptor TV3 M41E/H159Q (human | hagfish, UniProt O00206 27-228; O00206 27-228, M41E | H159Q)
Sequence of TLR4 decoy receptor TV3 M41E/H159Q (O00206 other isoform, or with tags, fused parts or gaps M41E | H159Q | M41E | H159Q | M41E H159Q): as the sequence (O00206 other isoform, or with tags, fused parts or gaps M41E | M41E | M41E) above, with H133Q counted along it

[13] = target: TLR4 decoy receptor TV3 F63W/V134L (human | hagfish, UniProt O00206 27-228; O00206 27-228, F63W | V134L)
[14] = target: TLR4 decoy receptor TV3 F63W/D181E (human | hagfish, UniProt O00206 27-228; O00206 27-228, F63W | D181E)
[15] = target: TLR4 decoy receptor TV3 V134L/H159Q (human | hagfish, UniProt O00206 27-228; O00206 27-228, V134L | H159Q)

B1: TLR4 decoy receptor, TV3 (wild-type) (designed binder)
chain: EPCVEVVPNITYQCMELNFYKIPDNLPFSTKNLDLSFNPLRHLGSYSFFSFPELQVLDLSRCEIQTIEDGAYQSLSHLSTLILTGNPIQSLALGAFSGLSSLQKLVAVETNLASLENFPIGHLKTLKELNVAHNLIQSFKLPEYFSNLTNLEHLDLSSNKIQSIYCTDLRVLHQMPLLNLSLDLSLNPMNFIQPGAFKEIRLKELALDTNQLKSVPDGIFDRLTSLQKIWLHTNPWDCSCPRIDYLSRWLNKNSQKEQGSAKCSGSGKPVRSIICP
modifications: limits from the PDB 2Z65 entity (paper residue number = entity position + 26); secreted from insect cells, immobilized by amine coupling
Kd [1]: 78 nM
koff [1]: 0.00222 s⁻¹
kon [1]: 28400 M⁻¹ s⁻¹

B2
Kd [2]: 48.2 nM
koff [2]: 0.000924 s⁻¹
kon [2]: 19100 M⁻¹ s⁻¹
Kd [3]: 183 nM
koff [3]: 0.00141 s⁻¹
kon [3]: 7660 M⁻¹ s⁻¹
Kd [4]: 3.21 nM
koff [4]: 5.29e-05 s⁻¹
kon [4]: 16400 M⁻¹ s⁻¹
Kd [5]: 43.3 nM
koff [5]: 0.00115 s⁻¹
kon [5]: 26500 M⁻¹ s⁻¹
Kd [6]: 2.84 nM
koff [6]: 3.97e-05 s⁻¹
kon [6]: 13900 M⁻¹ s⁻¹
Kd [7]: 22.2 nM
koff [7]: 0.00154 s⁻¹
kon [7]: 69100 M⁻¹ s⁻¹
Kd [8]: 4.11 nM
koff [8]: 0.00011 s⁻¹
kon [8]: 26700 M⁻¹ s⁻¹
Kd [9]: 4.07 nM
koff [9]: 8.05e-05 s⁻¹
kon [9]: 19700 M⁻¹ s⁻¹
Kd [10]: 4.3 nM
koff [10]: 1e-05 s⁻¹
kon [10]: 2140 M⁻¹ s⁻¹
Kd [11]: 0.026 nM
koff [11]: 5.23e-07 s⁻¹
kon [11]: 20100 M⁻¹ s⁻¹
Kd [12]: 145 nM
koff [12]: 0.000461 s⁻¹
kon [12]: 3160 M⁻¹ s⁻¹
Kd [13]: 283 nM
koff [13]: 0.00103 s⁻¹
kon [13]: 3660 M⁻¹ s⁻¹
Kd [14]: 39 nM
koff [14]: 2.27e-05 s⁻¹
kon [14]: 583 M⁻¹ s⁻¹
Kd [15]: 0.138 nM
koff [15]: 6.12e-06 s⁻¹
kon [15]: 44100 M⁻¹ s⁻¹
